Results from publication PMC3817407.
“And” between values parts separate entries of the source, which are not always exact repeats. Equal entries are not always repeated.

Assays:
ECF02_915 = target: T1, ECF02_915
T1 chain: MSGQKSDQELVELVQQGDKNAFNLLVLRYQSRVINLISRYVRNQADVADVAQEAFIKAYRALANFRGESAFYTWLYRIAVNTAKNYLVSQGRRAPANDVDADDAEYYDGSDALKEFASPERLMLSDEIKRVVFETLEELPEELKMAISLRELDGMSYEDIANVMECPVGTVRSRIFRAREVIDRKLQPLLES

ECF04_1609 = target: T2, ECF04_1609
T2 chain: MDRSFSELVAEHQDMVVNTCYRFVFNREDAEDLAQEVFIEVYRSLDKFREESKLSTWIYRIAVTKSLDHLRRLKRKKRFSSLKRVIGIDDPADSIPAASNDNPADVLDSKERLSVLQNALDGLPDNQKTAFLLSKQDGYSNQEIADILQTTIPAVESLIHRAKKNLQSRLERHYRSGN

ECF11_987 = target: T3, ECF11_987
T3 chain: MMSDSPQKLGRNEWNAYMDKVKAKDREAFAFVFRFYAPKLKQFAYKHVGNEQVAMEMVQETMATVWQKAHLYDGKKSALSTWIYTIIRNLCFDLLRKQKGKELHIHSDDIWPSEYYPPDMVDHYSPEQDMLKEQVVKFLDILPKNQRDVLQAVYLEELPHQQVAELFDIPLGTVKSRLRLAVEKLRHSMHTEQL

ECF12_807 = target: T4, ECF12_807
T4 chain: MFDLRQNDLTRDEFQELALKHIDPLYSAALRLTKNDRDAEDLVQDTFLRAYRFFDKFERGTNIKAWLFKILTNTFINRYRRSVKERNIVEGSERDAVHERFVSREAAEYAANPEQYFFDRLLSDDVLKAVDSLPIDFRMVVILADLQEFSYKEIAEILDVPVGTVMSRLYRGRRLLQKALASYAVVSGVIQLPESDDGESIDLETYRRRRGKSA

ECF14_1324 = target: T5, ECF14_1324
T5 chain: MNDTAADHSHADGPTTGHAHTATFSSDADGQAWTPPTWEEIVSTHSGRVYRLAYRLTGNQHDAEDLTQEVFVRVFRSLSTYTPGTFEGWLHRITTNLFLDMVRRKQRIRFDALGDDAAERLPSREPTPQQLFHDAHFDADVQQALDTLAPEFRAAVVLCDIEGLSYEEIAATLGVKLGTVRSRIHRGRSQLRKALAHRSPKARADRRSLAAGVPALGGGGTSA

ECF17_1691 = target: T6, ECF17_1691
T6 chain: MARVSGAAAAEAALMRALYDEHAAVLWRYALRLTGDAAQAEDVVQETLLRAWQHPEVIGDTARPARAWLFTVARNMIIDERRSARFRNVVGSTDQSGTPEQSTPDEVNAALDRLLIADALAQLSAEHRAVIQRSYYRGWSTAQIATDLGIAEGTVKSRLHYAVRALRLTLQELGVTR

ECF22_1147 = target: T7, ECF22_1147
T7 chain: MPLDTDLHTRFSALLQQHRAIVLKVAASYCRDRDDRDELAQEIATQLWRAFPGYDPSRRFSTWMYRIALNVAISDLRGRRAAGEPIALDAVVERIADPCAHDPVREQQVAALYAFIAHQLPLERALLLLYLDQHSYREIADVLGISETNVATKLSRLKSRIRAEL

ECF25_1643 = target: T8, ECF25_1643
T8 chain: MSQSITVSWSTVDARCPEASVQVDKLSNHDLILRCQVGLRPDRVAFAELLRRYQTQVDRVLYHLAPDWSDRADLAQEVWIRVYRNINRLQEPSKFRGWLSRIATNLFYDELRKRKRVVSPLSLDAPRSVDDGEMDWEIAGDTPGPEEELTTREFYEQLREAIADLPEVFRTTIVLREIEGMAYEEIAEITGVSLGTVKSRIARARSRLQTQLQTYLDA

ECF28_1040 = target: T9, ECF28_1040
T9 chain: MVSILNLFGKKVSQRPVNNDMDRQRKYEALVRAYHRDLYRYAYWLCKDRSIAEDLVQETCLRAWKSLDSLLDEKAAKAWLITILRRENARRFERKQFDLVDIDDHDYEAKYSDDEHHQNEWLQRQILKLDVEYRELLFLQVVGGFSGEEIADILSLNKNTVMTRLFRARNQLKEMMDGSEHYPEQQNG

ECF28_1088 = target: T10, ECF28_1088
T10 chain: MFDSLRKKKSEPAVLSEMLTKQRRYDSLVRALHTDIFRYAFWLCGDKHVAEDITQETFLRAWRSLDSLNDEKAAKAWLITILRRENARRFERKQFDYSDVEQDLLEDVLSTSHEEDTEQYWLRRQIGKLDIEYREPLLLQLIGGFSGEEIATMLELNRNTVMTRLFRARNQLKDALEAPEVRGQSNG

ECF30_35 = target: T11, ECF30_35
T11 chain: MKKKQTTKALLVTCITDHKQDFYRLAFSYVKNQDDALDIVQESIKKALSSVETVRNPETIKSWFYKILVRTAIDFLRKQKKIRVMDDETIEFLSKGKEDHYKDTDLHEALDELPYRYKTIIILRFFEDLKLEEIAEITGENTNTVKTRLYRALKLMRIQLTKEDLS

ECF33_375 = target: T12, ECF33_375
T12 chain: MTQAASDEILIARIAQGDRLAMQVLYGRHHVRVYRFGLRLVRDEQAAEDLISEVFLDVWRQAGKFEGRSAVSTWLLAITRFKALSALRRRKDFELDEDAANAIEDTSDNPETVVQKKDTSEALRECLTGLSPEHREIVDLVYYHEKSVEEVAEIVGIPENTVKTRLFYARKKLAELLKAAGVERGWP

ECF33_423 = target: T13, ECF33_423
T13 chain: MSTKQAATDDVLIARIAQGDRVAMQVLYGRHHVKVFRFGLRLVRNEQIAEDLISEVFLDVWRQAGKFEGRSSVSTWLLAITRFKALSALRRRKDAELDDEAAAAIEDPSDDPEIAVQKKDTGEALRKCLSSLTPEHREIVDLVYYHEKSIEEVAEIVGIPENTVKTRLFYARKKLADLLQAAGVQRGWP

ECF35_3582 = target: T14, ECF35_3582
T14 chain: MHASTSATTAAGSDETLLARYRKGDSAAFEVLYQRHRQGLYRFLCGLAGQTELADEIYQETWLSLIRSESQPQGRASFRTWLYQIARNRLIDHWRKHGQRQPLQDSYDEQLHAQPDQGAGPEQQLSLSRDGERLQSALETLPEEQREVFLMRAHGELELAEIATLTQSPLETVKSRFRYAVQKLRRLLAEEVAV

Row | Binder | fold repression (ECF02_915) | fold repression (ECF04_1609) | fold repression (ECF11_987) | fold repression (ECF12_807) | fold repression (ECF14_1324) | fold repression (ECF17_1691) | fold repression (ECF22_1147) | fold repression (ECF25_1643) | fold repression (ECF26_4464) | fold repression (ECF28_1040) | fold repression (ECF28_1088) | fold repression (ECF30_35) | fold repression (ECF33_375) | fold repression (ECF33_423) | fold repression (ECF35_3582)
1 | AS22_1147 (protein) MELDDIAVAWRSLEQRLDQHAALAGQVLGDLRSHAARAHLRPLWLSQSAQLLCAIALSGLVAHSWLAFPEQAAAIVGGVLLQIWCVALAASAARQLWLLSQLDFARPLLQTQRALAQLRRWRTRVAPWLGVAFWVLWVAVADAAWRALTGRSLPYAWLLCNLLVGVLGGIGTWLGYRRLQRSGHPWLERLDTVHAGRSVARTETLLEQIARFQRE | 3.59 | 3.52 | 3.16 | 3.45 | 4.18 | 1.74 | 6.19 | 2.46 and 1.99 | 3.82 | 1.78 | 2.19 | 2.04 | 1.26 | 1.76 | 1.94
2 | AS22_4450 (protein) MELDDMKHAWQTLEQRLDQQAAQTGQLLGVVHEETVRSSLRPLWVAQTAQLLCALALAIVSARSWIPHTDQPVAVIGGVLLQAWCMALAISAMVQLQLLTQFNVAGPLLRTQHALARLRRWRTRVAPWLGVAFWVLWIAVADALWRALTGQTLPTDWLVLNLLVGVAGGIGTWLGFRRLQRAQHPWLERIDRAHAGTGVIRAERMLEEIARFQRD | 2.12 | 1.43 | 1.89 | 1.67 | 2.85 | 1.52 | 5.73 | 1.63 and 1.34 | 2.51 | 1.4 | 1.18 | 1.54 | 1.4 | 1.24 | 1.35
3 | AS02_915 (protein) MEKTGQEWVSASVDGETDRQTLAELAADTDSHAKWQRYHLMGDAMRDELPQAMPLDLSARIAAALEDEPTILAPKVEREATQAPSRAVVVPFMRQLGQYGIAAAVALMAVVGVQNYQSTQDDAPLPVLNTRPLVGTATPVSLQTGPVANQNQGNANDQLLEQRRRINAYLQDHMLQQRLNTGAVVDDNSEVTPIPVNR | 29.2 | 3.74 | 3.88 | 9.79 | 4.42 | 2.73 | 4.49 | 3.46 and 2.7 | 3.42 | 2.03 | 2.38 | 2.79 | 2.44 | 2.28 | 2.65
4 | AS16_3622 (protein) MMKTDELISLLATAEGPVDRHALARRLGLALLAGLLGALLLTVALYGVRSDLAEVARTPLFWAKVALPTSLALLGLWLTQRLARPGVRGGALWGLLGVPLLLVWLGAAISLFGAPPEARADLIFGRTWRTCALNITLLSTPVFIAVFWALRGLAPTRLRQAGAAGGLLAGSTATLVYCLHCPEMGVPFWGLWYLLGMLVPTLLGAVLGPRLLRW | 1.26 | 1.95 | 4.23 | 7.12 | 8.8 | 2.43 | 8.27 | 1.55 and 1.67 | 8.91 | 3.02 | 2.18 | 0.992 | 1.17 | 1.87 | 1.67
5 | AS15_524 (protein) MNFGVEDMIEHVPMEDKRKGAAALDEARLRQQAIGVKLRQMFDEVVNEPVPDEFLAILRKAERPAGGE | 2.67 | 6.89 | 3.74 | 5.51 | 10.5 | 5.16 | 6.96 | 2.89 and 3.07 | 28.2 | 4.67 | 3.64 | 5.98 | 4.38 | 6.68 | 2.42
6 | AS16_973 (protein) MKTDDLIALLAAGEGPVPRHAVGRRMAVAALGGLTAALLLTITLYGVRSDITEVAQTPLFWGKVAFPTSLALIGLWLTSRLARPGGKGAAGWKMLGLPLLLVWCGAAVSIAGAPVDARADLLFGRTWRTCALNIALLSVPAFVTVFWALKGLAPTRLRLAGAAGGLLAGSSATVAYCLHCPEMGVPFWGVWYVLGMLVPTVLGAWWGPRMLRW | 0.403 | 0.632 | 1.32 | 0.905 | 0.887 | 0.852 | 1.2 | 0.594 and 0.667 | 1.46 | 1.39 | 1.04 | 0.463 | 0.373 | 0.683 | 0.722
7 | AS20_992 (protein) MTPERFVHLADAYGADLQRWPSAERAAAQALLDCGDAQAVAALRQAHWLDSQLDRYQVPAPSPALAQRIIAAAQQPGAPFWSRYAGWLASLGWVGVGLTGVAAGMLAVALSLPLSTSAEALPSVFDQSDAEFVLSINAEEAEQ | 1.93 | 1.95 | 2.81 | 1.4 | 1.64 | 2.05 | 2.47 | 1.63 and 1.33 | 2.04 | 2.12 | 2.27 | 1.61 | 1.04 | 1.32 | 1.6
